The target in assay [1] is His6-tagged BAKΔTM (BAK lacking its transmembrane domain, residues 1–186) (human) (UniProt Q16611). In words: cross-linking.
The target in assay [2] is BCLXLΔTM (cleaved by thrombin from GST-BCLXLΔTM). The assay can be described thus: SPR.
The target in assay [3] is MCL1ΔTM (cleaved by thrombin from GST-MCL1ΔTM). In words: SPR.

“And” between values parts separate entries of the source, which are not always exact repeats. Identical values can stand only once.

On to “His6-tagged BAKΔTM (BAK lacking its transmembrane domain, residues 1–186) (from UniProt Q16611 1-186) (domain or fragment)”, for which the stoichiometry N in assay [1] is 2 and 3.

B1: His6-tagged BAKΔTM (BAK lacking its transmembrane domain, residues 1–186) (domain or fragment)
chain: MASGQGPGPPRQECGEPALPSASEEQVAQDTEEVFRSYVFYRHQQEQEAEGVAAPADPEMVTLPLQPSSTMGQVGRQLAIIGDDINRRYDSEFQTMLQHLQPTAENAYEYFTKIATSLFESGINWGRVVALLGFGYRLALHVYQHGLTGFLGQVTRFVVDFMLHHCIARWIAQRGGWVAALNLGNG
B1: the fold less tight binding than BAK BH3 peptide in assay [2] and in assay [3] was 100 fold each time.

For the origin of these results see publication PMC4617978.
